Tests used:
[1] = tested on: Rat 1% Silver Nitrate-Induced Pain Model; assay: Intra-articular administration in rat 1% silver nitrate-induced pain model, gait pain score (Example 24); format: in vivo; settings: for average pain score: scale 0-3, 0.1 mL/kg into left hindlimb knee joint
Protocol: Rats (Crj: SD system (SPF), male, 6 weeks of age) were anesthetized, and a 1% silver nitrate solution was administered into the left hindlimb knee joint cavity at a dose of 50 µL/joint.
The gait state of the rats on the day after the model was created was evaluated by scoring. The rats were divided into groups based on the obtained scores, and under inhalation anesthesia with isoflurane, each test substance was administered at 0.1 mL/kg into the rat left hindlimb knee joint (n = 8).
The gait score was given once a day for 5 days from the day on which test substance was administrated. Note that, as the score on the first day, the score before administration (grouping) was used. Under the blind, the gait state of each group was visually observed using the following pain score table based on the gait state.
The results are shown by the average pain score on Table 16. • 0: Normal • 1: mild claudication with lifting the foot • 2: severe claudication with completely closing the toe • 3: walking on three legs

[2] = Release test of free diclofenac, felbinac, ketoprofen or naproxen in sodium phosphate buffer (Example 23); format: physicochemical
Protocol: (§1) (set temperature of air conditioner). After confirming that no gel was formed, this solution was dispensed. Immediately after the dissolution, the amount of free diclofenac present in each solution was measured by LC-MS/MS as an initial state (day 0 of storage). Also, the other dispensed solutions were incubated at 37° C. for 1, 3, and 7 days, and then the amount of free diclofenac was measured. […] The MS conditions are as follows. • Ionization mode: ESI-negative • Ion source temperature: 300 degrees • Capillary voltage: -4000 V

[3] = rabbit, in vivo
Protocol: For each test substance, 4 rabbits were used, the whole body was fixed with a towel under no anesthesia, the area around the left knee j oint was wiped with alcohol, and then 0.1 mL/kg of each of the above test substances was administered into the j oint cavity from the outside of the rabbit knee using a Terumo 1 mL syringe equipped with a 26 G injection needle (manufactured by Terumo).
Rabbits were exsanguinated and killed under combined anesthesia by intramuscular administration of ketamine hydrochloride and xylazine. The joint capsule was incised just below the patella to expose the knee joint cavity, and the inside of the joint cavity was washed with 2 mL of physiological saline using a catheter with a Surflo indwelling needle 20 G, and the synovial fluid mixed with physiological saline was collected. The amount of DF in the recovered synovial fluid was measured by the following procedure.
The synovial tissue was separated and collected from the knee joint after collecting the synovial fluid in (2) above. The collected synovial tissue was washed with physiological saline to remove the attached synovial fluid. After removing the patella, the synovial tissue was placed in a tube, and the tissue was cut into small pieces with scissors. […] The same extraction operation as in (2) above was performed, and the amount of free diclofenac was measured using LC-MS/MS.

[4] = Release test of free diclofenac from conjugates in 20 mM sodium phosphate buffer, 37°C (Example 11); format: physicochemical; settings: for Release Rate in Release Test at pH 5.3: pH 5.3, 37°C; for Release Rate in Release Test at pH 5.3 / Release Rate in Release Test at pH 7.0: free diclofenac; for Release Rate in Release Test at pH 7.0: pH 7.0, 37°C
Protocol: as §1

[5] = Day 1 (score before administration, grouping)
[6] = pH 5.3, day 1, free drug (diclofenac, felbinac, ketoprofen or naproxen)
[7] = pH 5.3, day 3, free drug (diclofenac, felbinac, ketoprofen or naproxen)
[8] = pH 5.3, day 7, free drug (diclofenac, felbinac, ketoprofen or naproxen)
[9] = pH 7.0, day 1, free drug (diclofenac, felbinac, ketoprofen or naproxen)
[10] = pH 7.0, day 3, free drug (diclofenac, felbinac, ketoprofen or naproxen)
[11] = pH 7.0, day 7, free drug (diclofenac, felbinac, ketoprofen or naproxen)

Compound	Release Rate in Release Test at pH 5.3 ([4]; Day 1, 0.1% w/w conjugate)	Release Rate in Release Test at pH 5.3 ([4]; Day 3, 0.1% w/w conjugate)	Release Rate in Release Test at pH 5.3 ([4]; Day 7, 0.1% w/w conjugate)	Release Rate in Release Test at pH 7.0 ([4]; Day 1, 0.1% w/w conjugate)	Release Rate in Release Test at pH 7.0 ([4]; Day 3, 0.1% w/w conjugate)	Release Rate in Release Test at pH 7.0 ([4]; Day 7, 0.1% w/w conjugate)	other results
Diclofenac-(2-Amino-N-(2-Hydroxyethyl)Acetamide)-Alginic Acid Derivative [Compound 53b]	–	–	–	–	–	–	average pain score [1, 5]: 2.5; average pain score ([1]; Day 2): 1.0; average pain score ([1]; Day 3): 0.9; average pain score ([1]; Day 4): 0.5; average pain score ([1]; Day 5): 0.4; degree of pain relief (recovery from pain) ([1]; compared with diclofenac, alginic acid and diclofenac + alginic acid administration groups): faster; Release Rate in Release Test at pH 5.3 [2, 6]: 0.6%; Release Rate in Release Test at pH 5.3 [2, 7]: 0.8%; Release Rate in Release Test at pH 5.3 [2, 8]: 1.0%; Release Rate in Release Test at pH 7.0 [2, 9]: 0.9%; Release Rate in Release Test at pH 7.0 [2, 10]: 2.3%; Release Rate in Release Test at pH 7.0 [2, 11]: 6.4%; DF retained in the synovial tissue continuously until ... after administration [3]: ≥ 84 days
Diclofenac-(2-Amino-1-(4-Hydroxypiperidin-1-Yl)Ethan-1-One)-Alginic Acid Derivative [Compound 63a]	–	–	–	–	–	–	Release Rate in Release Test at pH 5.3 [2, 6]: 0.0%; Release Rate in Release Test at pH 5.3 [2, 7]: 0.2%; Release Rate in Release Test at pH 5.3 [2, 8]: 0.2%; Release Rate in Release Test at pH 7.0 [2, 9]: 0.3%; Release Rate in Release Test at pH 7.0 [2, 10]: 0.8%; Release Rate in Release Test at pH 7.0 [2, 11]: 2.2%; DF retained in the synovial tissue continuously until ... after administration [3]: ≥ 84 days
O=C([O-])Cc1ccccc1Nc1c(Cl)cccc1Cl.[Na+] [DF, Diclofenac Na, reference compound]	–	–	–	–	–	–	average pain score [1, 5]: 2.5; average pain score ([1]; Day 2): 1.9; average pain score ([1]; Day 3): 1.9; average pain score ([1]; Day 4): 1.0; average pain score ([1]; Day 5): 0.8
Diclofenac-(Tyramine)-Alginic Acid Derivative [Compound 32]	0.0%	1.5%	7.6%	0.0%	5.7%	15.2%	–
Diclofenac-(2-Aminoethoxyethanol)-Alginic Acid Derivative [Compound 14]	0.0%	0.0%	0.0%	0.0%	0.0%	0.0%	–
Diclofenac-(Threonine Ethyl Ester)-Alginic Acid Derivative [Compound 24]	0.0%	0.0%	0.0%	0.0%	1.4%	5.4%	–
Diclofenac-(Serine Ethyl Ester)-Alginic Acid Derivative [Compound 19]	0.0%	0.0%	0.0%	0.0%	0.8%	12.3%	–
Diclofenac-((4-(Aminomethyl)Phenyl)Methanol)-Alginic Acid Derivative [Compound 28]	0.0%	0.1%	0.3%	0.1%	1.2%	4.0%	–
Diclofenac-(N-(Aminoethyl)-2-Hydroxyacetamide)-Alginic Acid Derivative [Compound 42]	0.0%	0.5%	3.3%	1.8%	10.2%	21.0%	Release behaviour in the release test at pH 7.0 (in words) ([4]; pH 7.0): stably released
Diclofenac-(3-Amino-2,2-Difluoropropan-1-Ol)-Alginic Acid Derivative [Compound 36]	0.0%	0.5%	1.0%	1.2%	8.8%	12.9%	–
